Experimental data as given in paper PMC8699718, “A structurally conserved site in AUP1 binds the E2 enzyme UBE2G2 and is essential for ER-associated degradation” (PLoS Biology, 2021).

Test system: NHK (Null Hong Kong variant of alpha1-antitrypsin)
Assay: CHX chase: NHK degradation in HT1080 UBE2G2 KO cells
Format: cell-based, human
Conditions: re-expression in HT1080 UBE2G2 KO
Procedure: Fig 3 The AUP1–UBE2G2 interaction is required for ERAD. (A) Equimolar amounts of GST-AUP1 (aa 292 to 410) or GST were immobilized on glutathione beads and binding to the indicated in vitro translated ^35S-labeled E2s was assessed. Left panel is 5% of input used for binding. E2s are referred to by their unique alpha-numeric designation (e.g., UBE2G1 and UBE2J1). (B) HT1080 or UBE2G2 KO cells were transfected with INSIG-1-MYC and degradation assessed by CHX chase. […] (D) Cells were transfected with NHK-MYC and HA-ubiquitin and ubiquitination of NHK assessed following proteasome inhibition and IP (right panel). Left panel is 10% of total cell lysate used for IP, indicating no discernable change in total ubiquitination. (E) Levels of endogenous HRD1 were monitored by CHX chase in the indicated cell types. (F) Ubiquitination of endogenous HRD1 was assessed following IP with HRD1 antiserum. Arrow in upper panel indicates migration of unmodified HRD1. […]
Plasmid transfections were carried out using PolyFect (Qiagen, Germantown, MD, USA) or JetPrime (Polyplus, New York, NY, USA) reagents. […] Clarified lysates or immunoprecipitates were denatured by heating in NuPAGE LDS Sample Buffer with β-mercaptoethanol at 70°C for 10 minutes, resolved on Bis-Tris polyacrylamide gels in NuPAGE MES or MOPS SDS running buffer and analyzed by western blotting. […]

B1: UBE2G2: ERAD ubiquitin-conjugating enzyme (E2); purified in vitro, N-terminally MYC-tagged in cells (protein)
chain: MAGTALKRLMAEYKQLTLNPPEGIVAGPMNEENFFEWEALIMGPEDTCFEFGVFPAILSFPLDYPLSPPKMRFTCEMFHPNIYPDGRVCISILHAPGDDPMGYESSAERWSPVQSVEKILLSVVSMLAEPNDESGANVDASKMWRDDREQFYKIAKQIVQKSLGL
  NHK degradation in UBE2G2 KO cells: restored NHK degradation
